pKd: −log10 of the molar value.
Biological target: Nrp1 immobilized on the biolayer interferometry biosensor (Homo sapiens (Human)) (UniProt O14786)
Assay: biolayer interferometry, Nrp1 immobilized on the biosensor

Row | pKd | Substance
1 | 6.68 | human glycyl-tRNA synthetase P234KY (P234KY-GlyRS^CMT2D) (from UniProt P41250 37-739) (enzyme)
2 | 7.53 | human glycyl-tRNA synthetase L129P (L129P-GlyRS^CMT2D) (from UniProt P41250 55-739) (enzyme)

— patent US20180313836A1
